# Variants at the floor of the assay were thinned out.
# B1: TPR 5TU (parent)
# chain: GGAUCUUCUCGAUCUAACAAAAAAGACAAAUCUGCCACAAAGCUUGAGAGCAUCUUCGGAUGCAGAGGCGGCAGCCUUCGGUGGCGCGAUAGCGCCAACGUUCUCAACUAUGACACGCAAAACGCGUGCUCCGUUGAAUGGAGUUUAUCAUG
# Variants of: B1
# Experiment: polymerase ribozyme fitness, log enrichment relative to wild type (log ratio); higher = more active; in vitro selection for triplet polymerase activity
# Outline: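 Mutant libraries of both subunits of a heterodimeric triplet polymerase ribozyme were PCR-built, transcribed, and selected once in triplicate, with frozen incubation at −7 °C and capture of gel-excised extended constructs on streptavidin beads before RT-PCR. Illumina sequencing of input and output libraries was filtered to genotypes with ≥10 input reads and ≥1 read per output. Fitness is the logarithm of genotype enrichment over wild-type enrichment, using inverse-variance-weighted replicate averages. The logarithm is base 2.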
row,Variant,polymerase ribozyme fitness (log ratio)
1,A40G U82G,-1.38
2,A40U A122C,0.0565
3,A41C G81U G86U U104C,-1.73
4,A41C G152U,-2.69
5,A41C C116G,-0.175
6,A41C C63G A64C U111C,≤ -4.2
7,A40G U53G A73G G81U G94A,≤ -4.2
8,A40U C54A A110G A120U,-4.07
9,A40G U56A,-1.21
10,A41G U44A U61C C75U A142C,≤ -4.2
11,A41C G50A G74A U82G C95U A107C,≤ -4.2
12,A41C U90G A113C,≤ -4.2
13,A40U G84A,-0.341
14,A40U U55A U101C A120C,-0.406
15,A41C A91C,≤ -4.2
16,A41C A91G,-2.85
17,A41C C57U A89U G92C C116G C125A,≤ -4.2
18,A40U A41C A49G C96A,-1.32
19,A41C A106G G133C A147U,-1.68
20,A41C G58A,0.163
21,A41C C63U C76G C93A U127A,≤ -4.2
22,A41G A52G C87U U144G U148G,-3.95
23,A41C G59C C75U G83C,-2.72
24,A41C G80A C87A,≤ -4.2

row,Variant,polymerase ribozyme fitness (log ratio)
1,A40G C105U A115U A138G,≤ -4.2
2,A41C U44A G84A U146G,≤ -4.2
3,A41C U53A U56A A66C C79G G84U,≤ -4.2
4,A40U A47C A89U U134G,-2.3
5,A40U A97U C108U,≤ -4.2
6,A40U G59U C75A C85U U109A,≤ -4.2
7,A40U C116A,0.309
8,A40G C96U,-1.81
9,A40U U55G C95U C105G C116G,-3.94
10,A41C U45G U53A G83C A91U C93U A115G U144A,≤ -4.2
11,A40U G68C C96U C105A,≤ -4.2
12,A41C G46U C76A U102A C131G,≤ -4.2
13,A40U C76A C79A C114U G143U U146C U148A,≤ -4.2
14,A40U G50C C85G C99U A137U U148G,≤ -4.2
15,A41C C75U C87A U148A,≤ -4.2
16,A40G C87U,-1.53
17,A40U A49C,≤ -4.2
18,A41C A107C G133A U144G,≤ -4.2
19,A41G C76A U77G G112A C116U A142C,≤ -4.2
20,A41C A60G C75A A138U G141U U146C U148C,≤ -4.2
21,A40U C93U U101G G128U,-4.04
22,A41C C87G G100C G126A A142C,≤ -4.2
23,A41C C85U C87U G133C G143A,-4.18
24,A41U A52U,-2.47

row,Variant,polymerase ribozyme fitness (log ratio)
1,A41U A52C,-2.05
2,A41C U61A A138U,-3.7
3,A41U A91U G140A,≤ -4.2
4,A41C C57A C96U U134C,-0.224
5,A40U C54U C85U C108U,≤ -4.2
6,A41C C54A A91C U104G U127A G140U U151C,≤ -4.2
7,A41C A120U,-0.45
8,A40U C54U A97U C99U,-2.64
9,A41G C54G U104A A119G G126U,-1.16
10,A41G G83C C99A,-2.03
11,A40U A47C A66C C76U C93A A98G C99G U104C A150U,≤ -4.2
12,A41G C51A G83A,-2.57
13,A41G G84A A89G C103G,-3.2
14,A41G A98U C103G A138C,≤ -4.2
15,A41C C79U G94U G100A C125A,-2.23
16,A41G G88U C131G,≤ -4.2
17,A41C A52G G62C C95G C131A A142U C149A,≤ -4.2
18,A41U A52G U55A C69A G86U,-3.96
19,A41C C95G,-0.72
20,A41C C95A,-0.7
21,A41C C95U,-2.15
22,A40U C63G,0.0879
23,A40G G70C C85A,≤ -4.2
24,A41C C43U C63U G88U,≤ -4.2

row,Variant,polymerase ribozyme fitness (log ratio)
1,A41C U45A G68A C85A C118G C129U U144C U146A,≤ -4.2
2,A41U A120C C125A A142C,-4.12
3,A40U A98G,-0.242
4,A41C A49C,-4.01
5,A41C A106C,-0.881
6,A40G G48C A49C,≤ -4.2
7,A41C U148C,-3.07
8,A41C U148G,≤ -4.2
9,A40G U45A U56A A60G G71C C118G,≤ -4.2
10,A41C C149A,-4.19
11,A41G C95U A122G C149A,≤ -4.2
12,A41U C54A C79U G88C U148C,≤ -4.2
13,A41C A89U C123G,-1.41
14,A40U C85A U144A,-0.577
15,A41C G50A A52C C54U U56A C75U C87U U146G A150G,≤ -4.2
16,A40U G62A C95U U104C G133C,-3.3
17,A40U C85A,-1.44
18,A40U C85G,-1.32
19,A41C C57A C87U C114G,-3.91
20,A41C A89U C95U G124A C125G,-1.75
21,A41C G94A U104G A113C C116G,≤ -4.2
22,A41G C75G,-2.98
23,A41G A60G A97U,-0.347
24,A41C A91C A106U U148C,≤ -4.2

row,Variant,polymerase ribozyme fitness (log ratio)
1,A41C C114U U127C,-3.96
2,A41C U55A G94A G112U U134A,≤ -4.2
3,A41G G65A G143U,-3.42
4,A41C U56A A91G A97G A142U,-3.86
5,A41C G59C U82C G86C C108G G141U,≤ -4.2
6,A41C G50C U55A C85G,≤ -4.2
7,A40G U77G G80A C93A A107G A120C A121U,≤ -4.2
8,A41C A47C C96U C103U A115G,-3.11
9,A41C C69A,-2.53
10,A41C C87A C95U A115C U151G,≤ -4.2
11,A41C G83A C116A,-0.205
12,A40G U90G C95A G112C U127C,≤ -4.2
13,A41G U146G,-0.0573
14,A40G U45A A47C C99U A115C G124C,≤ -4.2
15,A40G G67U C85A A98U U144C U145A,≤ -4.2
16,A40U C69A G143C,-2.79
17,A41C G80C,-4.11
18,A41G U53A U56C C76A A98G,-1.92
19,A41C G83C,-0.571
20,A41C A66U C87A A91U C103G A142U U145C,≤ -4.2
21,A40G G42U G74C,≤ -4.2
22,A41C U56A C63A G83A,-0.629
23,A40G C85U C118A,-2.77
24,A41C A47U G59U U61A G70C G84U C125A,≤ -4.2

row,Variant,polymerase ribozyme fitness (log ratio)
1,A40U A49C C72A C95U C99G A138C,≤ -4.2
2,A40U G88C U101G,≤ -4.2
3,A41C U127C,-2.04
4,A41C U53A C76U,-1.65
5,A40U G59C,0.561
6,A41C G48C C57U G84A,-2
7,A40U C51U G83C,-0.981
8,A41C G83U G124U,-0.893
9,A41C C85A C105G G126U,-3.3
10,A40U C57A G86A A110U C125A G141U,≤ -4.2
11,A40G G143A,-2.88
12,A40G G50U U56A G83C,-4.02
13,A41G U104G C125G,-1.21
14,A41C C57G G136U,-3.64
15,A41C G48A,-1.3
16,A41C U135G,-3.54
17,A41C U53C G81C C114A A115U C123G,≤ -4.2
18,A41G U53G,-0.77
19,A41C U53C C125G U144A,-2.53
20,A41G C75G G92C U146A,≤ -4.2
21,A41U A66C G88A A113C G143A U146C,≤ -4.2
22,A41C U61A G143C,-3.94
23,A40U C79U A121G,-2.75
24,A41G C85A U101G,-1.82

row,Variant,polymerase ribozyme fitness (log ratio)
1,A40G U53A A73U C103G,≤ -4.2
2,A40U G50C C85U,-2.29
3,A40G G117A,-3.18
4,A41C G65A C93U G94U C103G,≤ -4.2
5,A40G G58C C87A C103G A110U U135A,≤ -4.2
6,A41C C57U C96U,-0.458
7,A41U A89U A91C,-3.97
8,A41C U55A G133A,≤ -4.2
9,A40U C114U G141C G152U,-3.44
10,A41C C93U C105U,-1.68
11,A41C U134G,-2.46
12,A41G G94U C114U A150G,-3.98
13,A40G G86A C95U C103G C108U C125G,≤ -4.2
14,A41C U56G C76A C118G U134C,-3.21
15,A41C C99G,-0.603
16,A41C U55C C85G C108U G126A,≤ -4.2
17,A41C C54A U56A A73U A89U U101G A115C C129G U134A,≤ -4.2
18,A41G U55A C93U,-0.68
19,A41C A49C G81A A97C C103G G124U U134C,≤ -4.2
20,A40U C57G,0.32
21,A40U U61G C69U,-1.67
22,A40G C87G C103A G117U,≤ -4.2
23,A40G U55A C76G G81A G86U C149U,≤ -4.2
